Laboratory results reported in paper PMC12562681, “Targeting a Tau Kinase Cdk5, Cyclin-Dependent Kinase: A Blood-Based Diagnostic Marker and Therapeutic Earmark for Alzheimer’s Disease” (Biomolecules, 2025).

Assays:
[1] = biological target: recombinant human Cdk5 (Cyclin-Dependent Kinase 5) (human) (UniProt Q00535); experiment: SPR; recombinant Cdk5 immobilised on a Ni-NTA sensor chip (NiCl2 solution, then the protein); peptide YCWS passed over at 0.4, 0.6 and 1 µM; KA and KD calculated with BIA evaluation 3.0 software
[2] = biological target: recombinant human Cdk5 (Cyclin-Dependent Kinase 5) (human) (UniProt Q00535)

Kd [1]: 3.94 nM
Substance: peptide YCWS
cell viability (MTT) of differentiated SH-SY5Y cells treated with 20 µM aggregated Aβ25–35 together with YCWS at 2, 5, 10, 15 and 20 µM (77.65% without the peptide) [2]: 98.5%
